Assay results from patent publication CN116829596A.
pKd: −log10 of the molar value.

How the values were obtained:
[1] = molecular target: 人类血浆激肽释放酶 (human plasma kallikrein) (human) (UniProt P03952); assay: SPR, 37 C, pH 6.0
[2] = molecular target: 人类血浆激肽释放酶 (human plasma kallikrein) (human) (UniProt P03952); assay: SPR, 37 C, pH 7.4
[3] = molecular target: 丝氨酸穿膜蛋白酶; assay: cell-based or functional assay
[4] = molecular target: 人类血浆激肽释放酶 (human plasma kallikrein) (human) (UniProt P03952); assay: cell-based or functional assay
[5] = molecular target: 凝血酶A (thrombin A); assay: cell-based or functional assay
[6] = molecular target: 胰蛋白酶、人类胰酶 (trypsin, human pancreas) (human) (UniProt P07477); assay: cell-based or functional assay
[7] = molecular target: 人类血浆激肽释放酶 (human plasma kallikrein) (human) (UniProt P03952); assay: SPR, 37 C, pH 7.4 or pH 6.0
[8] = molecular target: 人类血浆激肽释放酶 (human plasma kallikrein) (human) (UniProt P03952); assay: SPR, 37 C, pH 6 against pH 7.4

Sequence of UniProt P03952 (P03952 20-390 S143N limits assumed, chain 1 of 2): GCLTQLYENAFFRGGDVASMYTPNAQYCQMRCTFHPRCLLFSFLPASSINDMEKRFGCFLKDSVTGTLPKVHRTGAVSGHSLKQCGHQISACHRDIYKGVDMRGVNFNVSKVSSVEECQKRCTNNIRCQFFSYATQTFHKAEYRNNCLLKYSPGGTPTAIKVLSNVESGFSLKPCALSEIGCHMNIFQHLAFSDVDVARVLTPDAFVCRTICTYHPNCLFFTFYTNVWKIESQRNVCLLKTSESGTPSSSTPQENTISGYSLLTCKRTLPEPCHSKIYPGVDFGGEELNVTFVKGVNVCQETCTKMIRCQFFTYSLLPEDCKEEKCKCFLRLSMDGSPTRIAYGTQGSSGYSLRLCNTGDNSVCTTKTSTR
Sequence of UniProt P03952 (P03952 391-638 limits assumed, chain 2 of 2): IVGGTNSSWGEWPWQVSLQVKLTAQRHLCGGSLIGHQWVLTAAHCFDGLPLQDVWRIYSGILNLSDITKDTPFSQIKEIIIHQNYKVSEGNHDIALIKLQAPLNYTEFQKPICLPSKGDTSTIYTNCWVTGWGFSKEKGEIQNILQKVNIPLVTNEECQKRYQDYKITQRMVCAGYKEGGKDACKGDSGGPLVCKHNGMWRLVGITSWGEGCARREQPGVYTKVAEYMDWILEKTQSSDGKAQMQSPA

pKd [1]: 6.63 | pKd [2]: 7.74 | 丝氨酸蛋白酶抑制分析，IC50 [3]: > 1000 nM | IC90，HMWK功能分析 [4]: 300 nM | 丝氨酸蛋白酶抑制分析，IC50 [5]: > 1000 nM | 胰蛋白酶抑制分析，IC50 [6]: 243 to 376 nM | fold affinity for plasma kallikrein over prekallikrein [7]: > 1000 倍 | fold change of KD between pH 6 and pH 7.4 [8]: > 10 倍
Substance: DX-2930 (antibody)
